Results: paper PMC12096693 (Microbial Cell Factories, 2025)

Columns and labels:
[1] = test system: CL2; details: pH 7, 2 mM PLP
[2] = substrate: NCCCC[C@H](N)C(=O)O; assay: purified protein; details: pH 7, 2 mM PLP

Km [1] [mM] | Molecule | Km [2] [mM]
22.2 ± 5.73 | NCCCC[C@H](N)C(=O)O [L-lysine] | –
– | CadA (Escherichia coli K-12) (protein) MNVIAILNHMGVYFKEEPIRELHRALERLNFQIVYPNDRDDLLKLIENNARLCGVIFDWDKYNLELCEEISKMNENLPLYAFANTYSTLDVSLNDLRLQISFFEYALGAAEDIANKIKQTTDEYINTILPPLTKALFKYVREGKYTFCTPGHMGGTAFQKSPVGSLFYDFFGPNTMKSDISISVSELGSLLDHSGPHKEAEQYIARVFNADRSYMVTNGTSTANKIVGMYSAPAGSTILIDRNCHKSLTHLMMMSDVTPIYFRPTRNAYGILGGIPQSEFQHATIAKRVKETPNATWPVHAVITNSTYDGLLYNTDFIKKTLDVKSIHFDSAWVPYTNFSPIYEGKCGMSGGRVEGKVIYETQSTHKLLAAFSQASMIHVKGDVNEETFNEAYMMHTTTSPHYGIVASTETAAAMMKGNAGKRLINGSIERAIKFRKEIKRLRTESDGWFFDVWQPDHIDTTECWPLRSDSTWHGFKNIDNEHMYLDPIKVTLLTPGMEKDGTMSDFGIPASIVAKYLDEHGIVVEKTGPYNLLFLFSIGIDKTKALSLLRALTDFKRAFDLNLRVKNMLPSLYREDPEFYENMRIQELAQNIHKLIVHHNLPDLMYRAFEVLPTMVMTPYAAFQKELHGMTEEVYLDEMVGRINANMILPYPPGVPLVMPGEMITEESRPVLEFLQMLCEIGAHYPGFETDIHGAYRQADGRYTVKVLKEESKK | 29.23 ± 9.56
– | LdcC (Escherichia coli K-12) (protein) MNIIAIMGPHGVFYKDEPIKELESALVAQGFQIIWPQNSVDLLKFIEHNPRICGVIFDWDEYSLDLCSDINQLNEYLPLYAFINTHSTMDVSVQDMRMALWFFEYALGQAEDIAIRMRQYTDEYLDNITPPFTKALFTYVKERKYTFCTPGHMGGTAYQKSPVGCLFYDFFGGNTLKADVSISVTELGSLLDHTGPHLEAEEYIARTFGAEQSYIVTNGTSTSNKIVGMYAAPSGSTLLIDRNCHKSLAHLLMMNDVVPVWLKPTRNALGILGGIPRREFTRDSIEEKVAATTQAQWPVHAVITNSTYDGLLYNTDWIKQTLDVPSIHFDSAWVPYTHFHPIYQGKSGMSGERVAGKVIFETQSTHKMLAALSQASLIHIKGEYDEEAFNEAFMMHTTTSPSYPIVASVETAAAMLRGNPGKRLINRSVERALHFRKEVQRLREESDGWFFDIWQPPQVDEAECWPVAPGEQWHGFNDADADHMFLDPVKVTILTPGMDEQGNMSEEGIPAALVAKFLDERGIVVEKTGPYNLLFLFSIGIDKTKAMGLLRGLTEFKRSYDLNLRIKNMLPDLYAEDPDFYRNMRIQDLAQGIHKLIRKHDLPGLMLRAFDTLPEMIMTPHQAWQRQIKGEVETIALEQLVGRVSANMILPYPPGVPLLMPGEMLTKESRTVLDFLLMLCSVGQHYPGFETDIHGAKQDEDGVYRVRVLKMAG | 18.46 ± 0.89
